# B1: DCD-MvDN30.1 (Dual Constant Domain Fab with the duplicated constant domains in tandem) (Fab)
# heavy: QVQLQQPGTELVKPGASVKLSCKASGYTFTSYWIHWVKQRPGQGLEWIGEINPSSGRTNYNEKFKNKVTVTVDKSSTTAYMQLSNLTSEDSAVYYCASRGYWGQGTTLTVSSASTKGPSVFPLAPSSKSTSGGTAALGCLVKDYFPEPVTVSWNSGALTSGVHTFPAVLQSSGLYSLSSVVTVPSSSLGTQTYICNVNHKPSNTKVDKKVEPKSCASTKGPSVFPLAPSSKSTSGGTAALGCLVKDYFPEPVTVSWNSGALTSGVHTFPAVLQSSGLYSLSSVVTVPSSSLGTQTYICNVNHKPSNTKVDKKVEPKSCDKTHTGAAWSHPQFEKGAAWSHPQFEKGAAWSHPQFEKGAAHHHHHH
# light: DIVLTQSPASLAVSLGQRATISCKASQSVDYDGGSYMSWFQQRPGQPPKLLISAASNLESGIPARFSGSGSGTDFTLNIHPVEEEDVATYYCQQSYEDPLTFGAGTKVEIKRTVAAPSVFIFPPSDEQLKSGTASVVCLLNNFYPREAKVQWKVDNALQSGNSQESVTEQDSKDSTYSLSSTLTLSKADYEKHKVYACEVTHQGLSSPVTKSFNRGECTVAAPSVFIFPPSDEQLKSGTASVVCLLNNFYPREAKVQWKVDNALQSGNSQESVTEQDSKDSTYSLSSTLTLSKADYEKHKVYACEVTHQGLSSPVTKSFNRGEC
# notes: also called DCD-Fab
# B2: DCD-MvDN30.2 (Dual Constant Domain Fab with the duplicated constant domains swapped reciprocally) (Fab)
# heavy: QVQLQQPGTELVKPGASVKLSCKASGYTFTSYWIHWVKQRPGQGLEWIGEINPSSGRTNYNEKFKNKVTVTVDKSSTTAYMQLSNLTSEDSAVYYCASRGYWGQGTTLTVSSASTKGPSVFPLAPSSKSTSGGTAALGCLVKDYFPEPVTVSWNSGALTSGVHTFPAVLQSSGLYSLSSVVTVPSSSLGTQTYICNVNHKPSNTKVDKKVEPKSCTVAAPSVFIFPPSDEQLKSGTASVVCLLNNFYPREAKVQWKVDNALQSGNSQESVTEQDSKDSTYSLSSTLTLSKADYEKHKVYACEVTHQGLSSPVTKSFNRGEC
# light: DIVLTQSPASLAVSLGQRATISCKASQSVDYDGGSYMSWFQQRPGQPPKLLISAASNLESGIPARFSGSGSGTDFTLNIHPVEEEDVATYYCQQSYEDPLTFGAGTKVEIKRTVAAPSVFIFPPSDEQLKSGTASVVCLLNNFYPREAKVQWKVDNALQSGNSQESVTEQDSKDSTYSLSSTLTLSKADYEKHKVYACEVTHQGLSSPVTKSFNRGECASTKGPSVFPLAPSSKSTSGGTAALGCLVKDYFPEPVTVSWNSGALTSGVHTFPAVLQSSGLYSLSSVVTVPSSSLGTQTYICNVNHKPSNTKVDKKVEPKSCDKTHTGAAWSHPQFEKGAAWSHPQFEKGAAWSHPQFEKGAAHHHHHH
# notes: also called DCD-Fab
# B3: chimerized DN30 Fab (MvDN30) (Fab)
# heavy: QVQLQQPGTELVKPGASVKLSCKASGYTFTSYWIHWVKQRPGQGLEWIGEINPSSGRTNYNEKFKNKVTVTVDKSSTTAYMQLSNLTSEDSAVYYCASRGYWGQGTTLTVSSASTKGPSVFPLAPSSKSTSGGTAALGCLVKDYFPEPVTVSWNSGALTSGVHTFPAVLQSSGLYSLSSVVTVPSSSLGTQTYICNVNHKPSNTKVDKKVEPKSC
# light: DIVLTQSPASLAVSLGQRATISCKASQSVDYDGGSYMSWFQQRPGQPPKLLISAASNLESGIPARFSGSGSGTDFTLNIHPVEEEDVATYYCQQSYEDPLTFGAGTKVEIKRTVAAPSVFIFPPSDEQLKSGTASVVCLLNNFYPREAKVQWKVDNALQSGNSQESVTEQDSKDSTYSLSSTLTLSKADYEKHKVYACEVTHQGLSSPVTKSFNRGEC
# notes: also called chimeric MvDN30; chimeric DN30 Fab
# Target: T1, Met-Fc chimera (human, UniProt P08581 25-932)
# T1 construct: extracellular domain;domain: Fc domain; Bought from R&D Systems; also called Fc-Met; Met ectodomain; not shown: Fc domain derived from a human IgG
# Test: ELISA, Met-Fc chimera in solid phase, antibody fragment in liquid phase, anti-strepTAG detection
# Method: Purified DCD-MvDN30.1 and DCD-MvDN30.2 were characterized for their ability to bind the Met receptor. To this end, the present inventors performed ELISA assays using Met ectodomain in solid phase and MvDN30, DCD-MvDN30.1 and DCD-MvDN30.2 in liquid phase.
# […] […] Data were analyzed and fit using Prism software (Graph Pad Software, San Diego, Calif.). Met-Fc chimera is a fusion protein wherein the Fc domain derived from a human IgG is fused in frame with the Met extracellular portion.
# T1 sequence (P08581 25-932, change not shown): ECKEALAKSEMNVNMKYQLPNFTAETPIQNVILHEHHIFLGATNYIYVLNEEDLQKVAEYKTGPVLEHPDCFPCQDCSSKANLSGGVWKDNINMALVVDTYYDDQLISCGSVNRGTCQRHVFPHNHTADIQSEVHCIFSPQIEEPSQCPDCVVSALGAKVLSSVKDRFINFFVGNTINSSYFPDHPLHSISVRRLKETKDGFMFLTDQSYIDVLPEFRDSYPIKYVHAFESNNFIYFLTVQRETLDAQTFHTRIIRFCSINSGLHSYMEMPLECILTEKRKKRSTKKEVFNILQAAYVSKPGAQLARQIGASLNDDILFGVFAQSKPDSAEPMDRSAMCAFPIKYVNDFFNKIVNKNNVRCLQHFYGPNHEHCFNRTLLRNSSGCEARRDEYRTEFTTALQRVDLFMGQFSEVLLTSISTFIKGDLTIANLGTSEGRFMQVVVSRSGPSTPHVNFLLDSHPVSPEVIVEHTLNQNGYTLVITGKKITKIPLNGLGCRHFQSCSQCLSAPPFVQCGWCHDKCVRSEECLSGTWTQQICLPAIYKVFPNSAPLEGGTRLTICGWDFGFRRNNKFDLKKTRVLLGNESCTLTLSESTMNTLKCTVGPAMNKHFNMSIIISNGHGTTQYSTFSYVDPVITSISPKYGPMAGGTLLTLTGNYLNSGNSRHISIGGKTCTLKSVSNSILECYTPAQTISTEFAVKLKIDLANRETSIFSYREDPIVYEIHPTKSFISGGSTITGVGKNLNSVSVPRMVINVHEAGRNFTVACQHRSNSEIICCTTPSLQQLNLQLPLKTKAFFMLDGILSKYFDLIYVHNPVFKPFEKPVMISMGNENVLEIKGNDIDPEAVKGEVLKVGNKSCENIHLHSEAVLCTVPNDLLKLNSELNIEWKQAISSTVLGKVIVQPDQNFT
row,Kd,Binder
1,0.133 nM,B1
2,0.13 nM,B2
3,0.141 nM,B3

# From US20180237527A1 (METIS PRECISION MEDICINE SB S R L, published 2018)
